Assay results: the supplement of paper PMC9170038

Tested on: MS2 coat protein
Assay: apparent KD of MS2 coat protein; designed switch direction (-1 OFF switch, 1 ON switch): -1; higher = weaker reporter binding
Method in brief: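 On Illumina chips, designed RNA switches with common flanks were made by stalled E. coli RNA polymerase. Titrations with SNAP-549-labelled MS2 coat protein, doubling from 0.7 or 1.5 nM to 3 µM, were done with no input, with 200 uM small-molecule ligand, or with an oligonucleotide input. Apparent KD is the median per design over clusters, from curve fits of normalised cluster fluorescence.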

[1] = input ligand: microRNA oligo, concentration not stated
[2] = Eterna round: R95, input ligand: FMN 200 uM
[3] = Eterna round: R95, input ligand: microRNA oligo, concentration not stated
[4] = Eterna round: R95, input ligand: none

Row | Sequence | apparent KD of MS2 coat protein (input ligand: FMN 200 uM) [nM] | apparent KD of MS2 coat protein (input ligand: none) [nM] | other results
1 | UAUAUGCAAGCGAGAUCCCACAUGAGGAUCACCCAUGUAAUAAAUAAGCACAGAAUUACUGUGAAAGCUCGUCUUAU [Winner reversed engineered 37] (Eterna round: R97, puzzle: Sensor, turn-off variant 1) | 92.5 | 105 | –
2 | UAUAUGUCAGGAUAUUAGUUGAGGUGGAAUUUAGCCUAUGCUGAGAAGGGACAUGAGGAUCACCCAUGUUCCUC [JR_Ex4_Sub011] (Eterna round: R97, puzzle: Exclusion 4) | 93.9 | 19.1 | –
3 | UAUAUGUCAGGAUAUUAGUUGUGUUCGAAUUUCACUUCUGCUGAGAAGGGACAUGAGGAUCACCCAUGUUCCUC [JR_Ex4_Sub006] (Eterna round: R97, puzzle: Exclusion 4) | 17.1 | 15.9 | –
4 | UAUGGUAAAGUCAGGAUAUACGUACGUCGUUCUAGGUAGAAGGGACAUGAGGAUCACCCAUGUAUGAUAGUAAA [Ex4 #35] (Eterna round: R97, puzzle: Brourd's mod of Exclusion 4) | 36.1 | 41.6 | –
5 | UAUGGUUAAGUCAGGAUAUACUAAUAGAAAUCUGAGUAGAAGGGACAUGAGGAUCACCCAUGUAUGGUAGUGUU [Ex4 #58] (Eterna round: R97, puzzle: Brourd's mod of Exclusion 4) | 77.1 | 55.2 | –
6 | UAUGUGUCAGGAUAUUAAUUAUAGGAGAAUGUGACGAUGAUUAAGAAGGGACAUGAGGAUCACCCAUGUUCAUC [JR_Ex4_Sub025] (Eterna round: R97, puzzle: Exclusion 4) | 21.3 | 19 | –
7 | UAUGUUAGCACAGGAUAUUGUUAUUAUUUAAUUCAAGAAGGGUGUACAUGAGGAUCACCCAUGUUAUGGUUUUAUCUUUUACAA [JR_ExcNG1_Sub013] (Eterna round: R96, puzzle: Exclusion NG 1) | – | – | apparent KD of MS2 coat protein [1]: 957 nM
8 | UAUUAACAAGCGAGAUCCUACAUGAGGAUCACCCAUGUGCUCGUCUUAUAAGGUACUGUGACGAAAGUCACGGUACC [Eli 91 v37] (Eterna round: R97, puzzle: Sensor, turn-off variant 1) | 19.5 | 21 | –
9 | UAUUAACAAGUAAGAUCCUACAUGAGGAUCACCCAUGUGCUCGUCUUAUAAGGUACUGUGACGAAAGUCACGGUACC [Sensor 3, v1 - 72] (puzzle: Sensor v3, turn-off variant 1) | – | – | apparent KD of MS2 coat protein [2]: 37.6 nM; apparent KD of MS2 coat protein [3]: 46.7 nM; apparent KD of MS2 coat protein [4]: 39.4 nM
10 | UAUUAAUGCAAGGAUAUGCUAUUAAUUUAUUUUGCAGAAGGUGCAACAUGAGGAUCACCCAUGUUGGAGGGUAU [JR_E6_Sub028] (puzzle: Exclusion 6) | – | – | apparent KD of MS2 coat protein [3]: 19.3 nM
11 | UAUUACUCAGGAUAUAUGAUGUGAAACAUGAGGAUCACCCAUGUAAUAUUAUGGAUGUAAAUAGAAGGGAGAUUUU [Mat - Exclusion 5 - JL mod - D18] (puzzle: Exclusion 5) | – | – | apparent KD of MS2 coat protein [2]: 51.8 nM; apparent KD of MS2 coat protein [3]: 68.4 nM; apparent KD of MS2 coat protein [4]: 54.8 nM
12 | UAUUAGCAAGCAAGAUCCCACAUGAGGAUCACCCAUGUGCUCGUCUUAUAAGGUACUGUGACGAAAGUCACGGUACC [Sensor 3, v1 - 83] (puzzle: Sensor v3, turn-off variant 1) | – | – | apparent KD of MS2 coat protein [2]: 36.8 nM; apparent KD of MS2 coat protein [3]: 1080 nM; apparent KD of MS2 coat protein [4]: 38 nM
13 | UAUUAGCAAGCAAGAUCCCACAUGAGGAUCACCCAUGUGCUCGUCUUAUAAGGUACUGUGACGAAAGUCACGGUACC [Sensor 3, v1 - 95 v2] (Eterna round: R97, puzzle: Sensor, turn-off variant 1) | 52.5 | 45.4 | –
14 | UAUUAGCAAGCAAGGUCCCACAUGAGGAUCACCCAUGUGCUCGUCUUAUAAGGUACUGUGACGAAAGUCACGGUACC [Sensor 3, v1 - 92] (puzzle: Sensor v3, turn-off variant 1) | – | – | apparent KD of MS2 coat protein [2]: 46.6 nM; apparent KD of MS2 coat protein [4]: 53.1 nM
15 | UAUUAGCAAGCGAGAUCCCACAUGAGGAUCACCCAUGUAGCUCGUCUUAUAAAGGUUUCGACGAAAACGUCGAGACC [Eli 91 v27] (Eterna round: R97, puzzle: Sensor, turn-off variant 1) | 17.5 | 16.1 | –
16 | UAUUAGCAAGCGAGAUCCUACAUGAGGAUCACCCAUGUGCUCGUCUUGUAAGGUACUGUGACGAAAGUCACGGUACC [Eli 91 v38] (Eterna round: R97, puzzle: Sensor, turn-off variant 1) | 16.5 | 15.6 | –

Row | Sequence | apparent KD of MS2 coat protein (input ligand: FMN 200 uM) [nM] | apparent KD of MS2 coat protein (input ligand: none) [nM] | other results
17 | UAUUAGCAAGUAAGGUCCCACAUGAGGAUCACCCAUGUGCUCGUCUCCUCAGGUACGGAGCGGAAACUCCCGAUAUG [Sensor-V1 #92] (Eterna round: R97, puzzle: Sensor, turn-off variant 1) | 121 | 102 | –
18 | UAUUAGCAAGUGAGAUCCGACAUGAGGAUCACCCAUGUGCUCGUCUUAUAAGGUAAUAUAAGAAAACUUAUAUUACC [Elimod 6 - Jieux - Sensor, turn-off variant 1] (Eterna round: R97, puzzle: Sensor, turn-off variant 1) | 207 | 233 | –
19 | UAUUAGUAAGGAUAUGAGGCGUAGUACGAAAGUACUACGUCUCAGAAGGUACAUGAGGAUCACCCAUGUUCAUU [Mod of Fisker 4 - Jieux - Exclusion 4] (Eterna round: R97, puzzle: Exclusion 4) | 19.9 | 17.8 | –
20 | UAUUCACAUGAGGAUCACCCAUGUCAGGAUAUAGUCGAUAUAUGGAAACAUAUAUCGACUAGAAGGGACUAGCG [Jieuxxlusion 12 - Jieux - Exclusion 1] (Eterna round: R97, puzzle: Exclusion 1) | 64.5 | 47.4 | –
21 | UAUUCACAUGAGGAUCACCCAUGUCAGGAUAUGCUCGAUAUAUGGAAACAUAUAUCGAGCAGAAGGGACUAGCG [Jieuxxlusion 8 - Jieux - Exclusion 1] (Eterna round: R97, puzzle: Exclusion 1) | 98.7 | 41.2 | –
22 | UAUUCUAGAUAGGAUAUACUUUUUUUUUUUUUCGUAGAAGGAUCUACAUGAGGAUCACCCAUGUUUUCAGCAGU [JR_E6_Sub012] (Eterna round: R96, puzzle: Exclusion 6) | 99.6 | 71.1 | apparent KD of MS2 coat protein [1]: 65.7 nM
23 | UAUUCUAGAUAGGAUAUACUUUUUUUUUUUUUCGUAGAAGGAUCUACAUGAGGAUCACCCAUGUUUUCAGCAGU [JR_E6_Sub012] (puzzle: Exclusion 6) | – | – | apparent KD of MS2 coat protein [3]: 48.3 nM
24 | UAUUGUUUUUUUUUAAAUUACAUGAGGAUCACCCAUGUUUUUUUUUUUUUGGUGAUUAUUUUUUGUCUUUUUUUUUU [Jieuxbot 037 - Jieux - Sensor v2, turn-off variant] (Eterna round: R96, puzzle: Sensor v2, turn-off variant) | 58.5 | 43.3 | apparent KD of MS2 coat protein [1]: 69 nM
25 | UCAAGAAUAGGAUAUACAACAUGCCCGCUUCUUUGCAUCGCACAUGAGGAUCACCCAUGUAGAAGGGUUCUCUA [Exclusion-2-#16] (Eterna round: R97, puzzle: Exclusion 2) | 103 | 151 | –
26 | UCAAGUAUGUAGGAUAUCGAUGUCUACGGACAUCGAGAAGGACGUACAUGAGGAUCACCCAUGUAACUUGCAUG [Exclusion 6 - B - 10:d] (Eterna round: R96, puzzle: Exclusion 6) | 238 | 283 | apparent KD of MS2 coat protein [1]: 144 nM
27 | UCAAGUAUGUAGGAUAUCGAUGUCUACGGACAUCGAGAAGGACGUACAUGAGGAUCACCCAUGUAACUUGCAUG [Exclusion 6 - B - 10:d] (puzzle: Exclusion 6) | – | – | apparent KD of MS2 coat protein [2]: 37.2 nM; apparent KD of MS2 coat protein [3]: 79.4 nM; apparent KD of MS2 coat protein [4]: 108 nM
28 | UCAAUACGGAAGGAUAUGCCGAAGCAUGCGCAGGCAGAAGGUCUGACAUGAGGAUCACCCAUGUUGGAGAUCAA [Eternabot (L2) Solution 21] (Eterna round: R97, puzzle: Exclusion 6) | 82.1 | 19.1 | –
29 | UCAGCUUGUGUCAGGAUAUCCAGUCCGACGGGAGAGGAGAAGGGACAUGAGGAUCACCCAUGUAGGCGCCCUAC [Soerrecege] (Eterna round: R97, puzzle: Brourd's mod of Exclusion 4) | 63.8 | 461 | –
30 | UCAGUUCUGCAAGGAUAUCGUCCUAGUUUGGUACGAGAAGGUGCUUUUGUUUUUUCCUUGUGUUGACAUGAGGAUCACCCAUGU [JL JR Sub53 mod] (Eterna round: R96, puzzle: Exclusion NG 1) | – | – | apparent KD of MS2 coat protein [1]: 28.4 nM
31 | UCAUGUCCGGAGGAUAUGGCGCCCGUAAGGGCGCCAGAAGGCCGGACAUGAGGAUCACCCAUGUCGGCCUUCCC (Eterna round: R97, puzzle: Exclusion 6) | 22.1 | 28.4 | –
